Assays:
[1] = target: Influenza A virus matrix 1 (M1) protein with a C-terminal His6-tag (Influenza A virus A/chicken/Jiangsu/1/1998 (H9N2)); assay: SEC
[2] = target: Influenza A virus matrix 1 (M1) protein with a C-terminal His6-tag (Influenza A virus A/chicken/Jiangsu/1/1998 (H9N2)); assay: […]; 0.2% ([…], pH 8.0, room temperature, 5 min; […]
[3] = target: Influenza A virus matrix 1 (M1) protein with a C-terminal His6-tag (Influenza A virus A/chicken/Jiangsu/1/1998 (H9N2)); assay: SEC; […], pH 5.0, 25°C; […]

Measured: stoichiometry N

Influenza A virus matrix 1 (M1) protein with a C-terminal His6-tag (natural protein)
2: all assays above

— publication PMC3360003
